What was measured:
Format in all cases: binding
[1] = molecular target: T1, Nectin-4 expressed by normal differentiated human keratinocytes (NHEK) (Homo sapiens, UniProt Q96NY8); assay: Flow cytometry on normal differentiated human keratinocytes (NHEK); conditions: dose range 8 PM-33 nM
T1 construct: Cells or cell lines (10,000-50,000) expressing Nectin-4 (naturally or transfected); endogenous in cells; host or cells: NHEK, differentiated with 0.1 mM CaCl2
T1 sequence (Q96NY8 32-510): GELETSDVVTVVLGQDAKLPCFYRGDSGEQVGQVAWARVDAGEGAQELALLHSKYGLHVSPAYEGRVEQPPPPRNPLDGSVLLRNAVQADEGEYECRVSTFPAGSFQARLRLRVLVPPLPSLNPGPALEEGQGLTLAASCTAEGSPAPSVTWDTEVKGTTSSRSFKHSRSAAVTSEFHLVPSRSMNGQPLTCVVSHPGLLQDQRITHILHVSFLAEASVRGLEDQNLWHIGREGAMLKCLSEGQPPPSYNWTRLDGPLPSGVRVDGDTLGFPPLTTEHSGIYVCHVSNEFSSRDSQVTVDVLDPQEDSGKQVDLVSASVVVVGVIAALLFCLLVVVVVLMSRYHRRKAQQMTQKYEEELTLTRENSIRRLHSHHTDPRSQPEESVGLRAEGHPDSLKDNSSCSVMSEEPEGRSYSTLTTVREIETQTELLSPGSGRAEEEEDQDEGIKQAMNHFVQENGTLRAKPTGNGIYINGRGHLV
Description: FIG. 15: Differential binding of Ch-15A7.5 and its humanized variants to Nectin-4 expressed by tumor cell line and normal differentiated human keratinocytes. Detection by flow cytometry.
Flow cytometry analysis of TNBC cell line (SUM190, upper panels) and normal differentiated (0.1 mM CaCl2) human keratinocytes (NHEK, lower panels) using a dose range (8 PM-33 nM) of Ch-5A12.2, Ch-15A7.5 and its humanized variants 15A7.5-H1L2, -H1L3, -H2L2, -H2L3, -H3LO, -H3L2, -H3L3. Cells were then stained with phycoerythrin conjugate goat anti human Fc antibody. Normalized mean fluorescence intensities are shown. Non-linear curve fitting (4 parameters) was done with GraphPad Prism 9 software.
Cells or cell lines (10,000-50,000) expressing Nectin-4 (naturally or transfected) were incubated with dose range of the indicated antibodies. After washing, cells were then stained with phycoerythrin-conjugated goat anti human antibody (5 μg/mL) Jackson Immuno Research). After fixation, cells were stained with a viability dye (e780, Invitrogen) before flow cytometry acquisition.

human Nectin-4 [2] = assay: ELISA on coated Nectin-4 Fc fusion proteins (Nec4-VCC, Nec4-V); conditions: ELISA
Description: (§1) Detection by ELISA. • Ninety-six-wells plates were coated, as indicated, with 5 μg/mL Nectin-1 extracellular domain Fc fusion recombinant protein (Nec1-VCC), or Nectin-4 IgV-like domain Fc fusion recombinant protein (Nec4-V), or Nectin-4 extracellular domain Fc fusion recombinant protein (Nec4-VCC) overnight at 4° ° C.
FIG. 3: Characterization of Ch-15A7.5 epitope. Competition assay was performed by ELISA. • Ninety-six-wells plates were coated with 5 μg/mL of Nectin-4 extracellular domain Fc fusion recombinant protein (Nec4-VCC) overnight at 4° C. Binding of peroxidase-conjugated Ch-15A7.5 mAb (5 μg/mL) was measured in presence of increasing concentrations (2.75 ng/ml-6 μg/mL) of Rituximab, Ch-15A7 mAb, Enfortumab (HA22), Ch-N41 mAb and Ch-14A5 mAb.
(§2) A sandwich enzyme-linked immunosorbent assay was used to control specificity of Ch-15A7.5 antibody and to perform competition assays between different mAbs. Ninety-six-wells plates were coated with 10 nM of Nectin-4-VCC-Fc, Nectin-1-VCC-Fc (entire extracellular part) or Nectin-4-V-Fc (comprising only the IgV domain) overnight at +4° C. After washes and saturation with PBS 1% BSA, cells were incubated for 2 hours at 25° C. with 10 nM of peroxidase-conjugated Ch-15A7.5 mAb. In the case of competition, binding of 0.5 nM of peroxidase conjugated Ch-15A7.5 mAb was measured in the presence of variable concentration (0.018 nM to 40 nM) of “cold” mAb. One hundred μL of peroxidase substrate was added (One Step ABST, Pierce), and OD was red at 405 nm.

human Nectin-4 [3] = assay: Flow cytometry of MDA-MB231 transfected with Flag-tagged Nectin-4; conditions: MDA-MB231 transfected with Nectin-4, 0.3 ng/ml-5 μg/mL
Description: Detection by flow cytometry. • Flow cytometry analysis of MDA-MB231 transfected with the N-terminal Flag-tagged epitope of Nectin-4 using a dose range (0.3 ng/ml-5 μg/mL) of Ch-15A7.5 or Ch-5A12.2 antibodies Parental MDA-MB231 cells are included as controls. Cells were then stained with phycoerythrin conjugate goat anti human Fc antibody. The normalized mean fluorescence intensity is shown. Inlay: staining of parental MDA-MB231 cells with anti Nectin-1, -2 and -3 mAbs ([…]). Mean fluorescence intensity is represented.
Human breast carcinoma cell line MDA-MB231 (ATCC, Manassas, VA) was cultured in DMEM supplemented with 10% fetal bovine serum, 50 IU/mL penicillin, 50 μg/mL streptomycin and 2 mM glutamine. The cells were transfected with expression vector p3XFLR4.C1 containing a PVRL4 cDNA. Human triple negative breast cancer cell line SUM190PT (BioIVT, Westbury, NY) was cultures in Ham's F12 medium with 5% fetal bovine serum, 1% non-essential amino acids, 1% Hepes, 1% insulin, 1 μg/mL hydrocortisone, 6.8 ng/ml Triiodo L-tyrosine, 100 IU/mL penicillin, 100 μg/mL streptomycin and 2 mM glutamine. Chinese hamster ovary CHO cell line was cultured in DMEM supplemented with 10% fetal bovine serum, 100 IU/mL penicillin, 100 μg/mL streptomycin and 2 mM glutamine. […]

[4] = molecular target: T2, Nectin-1 extracellular domain (Homo sapiens, UniProt Q15223); assay: ELISA on coated Nectin-1 extracellular domain Fc fusion protein (Nec1-VCC)
T2 construct: Nectin-1 extracellular domain Fc fusion recombinant protein (Nec1-VCC)
T2 sequence (Q15223 31-355 limits assumed): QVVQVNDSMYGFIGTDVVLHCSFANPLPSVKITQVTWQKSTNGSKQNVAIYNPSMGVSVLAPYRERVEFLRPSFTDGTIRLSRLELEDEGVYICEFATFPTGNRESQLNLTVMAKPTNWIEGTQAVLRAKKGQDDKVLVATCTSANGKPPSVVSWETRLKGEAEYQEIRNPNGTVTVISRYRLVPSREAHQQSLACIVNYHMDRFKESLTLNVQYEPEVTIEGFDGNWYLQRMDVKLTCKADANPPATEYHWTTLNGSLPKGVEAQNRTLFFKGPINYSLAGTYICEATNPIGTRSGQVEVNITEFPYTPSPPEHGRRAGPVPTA
Description: as §1, §2

B1: Ch-15A7.5: chimeric antibody of 15A7.5 with Fc-silent human Fc (antibody, V domains shown)
VH: EVKLVESGGGLVQPGGSRKLSCAASGFTFSNYGMAWVRQAPGKGPEWVAFISNLAYGINYADTVTGRFTISRENAKNTLYLEMRSLRSEDTAMYYCARGARATGWFAYWGQGTLVTVSA
VL: DIVMTQSQKFMSTSIGDRVSVTCKASQNVDTHVAWYQEKPGQSPKALIYSASYRYSGVPDRFTGSGSGTDFTLTISNVQSEDLADYFCQQYNSYPLTFGGGTKLEIK
- apparent EC50 towards keratinocytes in comparison to that of Ch-5A12.2 [1]: much lower apparent EC50
- recognition of Nectin-4 IgV-like domain (human Nectin-4 [2]; Nec4-V coated): recognizes IgV-like domain of human Nectin-4
- recognition of Nectin-4 extracellular domain (human Nectin-4 [2]; Nec4-VCC coated): recognizes the Nectin-4 extracellular domain
- recognition of human Nectin-4 (human Nectin-4 [3]): recognize human Nectin-4
- recognition of Nectin-1 extracellular domain [4]: not the Nectin-1 extracellular domain
